The record followed here is patent EP4628507A1 (Jiangsu Hengrui Pharmaceuticals Co., Ltd., dated 2025).

Test [1] deals with T1, human 4-1BB on the surface of HEK293-Hu4-1BB cells (human, UniProt Q07011 24-255). The test can be described thus: cell-based or functional assay.
In test [2] the target is T1, human 4-1BB on the surface of …. In words: flow cytometry on HEK293-Hu4-1BB cells.
Test [3] has the same target. In words: flow cytometry on HEK293-Hu4-1BB cells. This is another data set of the same source.
Test [4] has the same target. The test can be described thus: cell-based or functional assay. This is another data set of the same source.

Read-outs that look alike come from different tables or passages of the source.

T1 sequence (Q07011 24-255): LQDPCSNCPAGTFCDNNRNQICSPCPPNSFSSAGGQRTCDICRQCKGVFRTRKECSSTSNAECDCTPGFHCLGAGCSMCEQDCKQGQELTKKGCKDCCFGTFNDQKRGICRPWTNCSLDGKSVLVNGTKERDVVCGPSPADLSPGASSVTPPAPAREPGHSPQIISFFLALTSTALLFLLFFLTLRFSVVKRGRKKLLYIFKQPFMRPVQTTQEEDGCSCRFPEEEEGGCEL

B1: Urelumab (antibody, V domains shown)
VH: QVQLQQWGAGLLKPSETLSLTCAVYGGSFSGYYWSWIRQSPEKGLEWIGEINHGGYVTYNPSLESRVTISVDTSKNQFSLKLSSVTAADTAVYYCARDYGPGNYDWYFDLWGRGTLVTVSS
VL: EIVLTQSPATLSLSPGERATLSCRASQSVSSYLAWYQQKPGQAPRLLIYDASNRATGIPARFSGSGSGTDFTLTISSLEPEDFAVYYCQQRSNWPPALTFGGGTKVEIK
Regarding B1, in test [1], the “Fold change in Emax, FcγRIIb-mediated activation of HEK293-4-1BB cells” value was determined as 2.61 fold and the “Fold change in Emax, activation of HEK293-4-1BB cells (no FcγRIIb)” value stood at 1.7 fold. Besides, the EC50 in test [2] turned out to be 1.64 nM. In test [3], this molecule yielded a half-maximal effective concentration (EC50) of 1.18 nM. In addition, in test [4], the “EC50, 4-1BB/NF-κB luciferase reporter, FcγRIIb cross-linking” value stood at 0.027 nM; the “EC50, 4-1BB/NF-κB luciferase reporter, no FcγRIIb cross-linking” value came out at 2.19 nM; the “Emax, 4-1BB/NF-κB luciferase reporter, FcγRIIb cross-linking” value is 9.39 relative to the antibody-free group; the “Emax, 4-1BB/NF-κB luciferase reporter, no FcγRIIb cross-linking” value is 4.3 relative to the antibody-free group.
